Results as given in patent US20260151508A1 (BEAM THERAPEUTICS, published 2026).

Experiments:
[1] = biological target: T1, PiM+Bystander (D365G) human alpha-1 antitrypsin (AAT) protein, bacterially expressed (human, UniProt P01009 25-418); assay: in vitro neutrophil elastase binding assay, bacterially expressed AAT
T1 construct: Wild-type AAT altered to include D365G; also called D365G AAT protein; AAT protein with a D365G alteration

[2] = biological target: T2, PiM (wild type) human alpha-1 antitrypsin (AAT) protein, bacterially expressed (human, UniProt P01009 25-418); assay: as above
T2 construct: The signal peptide is left out here; also called PiM (WT) AAT; wild-type AAT
T2 sequence (P01009 25-418): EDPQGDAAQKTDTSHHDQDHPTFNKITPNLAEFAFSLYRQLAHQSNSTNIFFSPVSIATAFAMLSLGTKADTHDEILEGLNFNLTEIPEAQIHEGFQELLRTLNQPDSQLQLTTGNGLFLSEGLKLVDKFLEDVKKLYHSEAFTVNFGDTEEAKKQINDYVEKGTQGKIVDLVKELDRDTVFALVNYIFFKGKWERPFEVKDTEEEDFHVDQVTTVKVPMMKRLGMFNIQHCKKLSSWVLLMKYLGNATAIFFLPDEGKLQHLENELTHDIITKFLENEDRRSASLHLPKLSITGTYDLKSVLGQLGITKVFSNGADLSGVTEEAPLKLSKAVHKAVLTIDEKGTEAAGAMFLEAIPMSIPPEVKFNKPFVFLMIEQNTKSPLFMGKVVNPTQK

T1 sequence (P01009 25-418 D365G): as the sequence (P01009 25-418) above, with D341G counted along it

binding result [1]: binds
binding result [2]: binds
B1: human neutrophil elastase (enzyme, UniProt P08246 30-247, looked up)
chain: IVGGRRARPHAWPFMVSLQLRGGHFCGATLIAPNFVMSAAHCVANVNVRAVRVVLGAHNLSRREPTRQVFAVQRIFENGYDPVNLLNDIVILQLNGSATINANVQVAQLPAQGRRLGNGVQCLAMGWGLLGRNRGIASVLQELNVTVVTSLCRRSNVCTLVRGRQAGVCFGDSGSPLVCNGLIHGIASFVRGGCASGLYPDAFAPVAQFVNWIDSIIQ
notes: also called HNE
